Legend:
[1] = target: isolated CARF domain (1–169 aa) of StCsm6 (Streptococcus thermophilus DGCC8004); experiment: SEC
[2] = target: isolated HEPN domain (172–428 aa) of StCsm6 (Streptococcus thermophilus DGCC8004); experiment: SEC

Substance: isolated CARF domain (1–169 aa) of StCsm6 (domain or fragment)
- stoichiometry N [1]: 2

Substance: isolated HEPN domain (172–428 aa) of StCsm6 (domain or fragment)
- stoichiometry N [2]: 2
